This is an account of results in patent publication US20230183713A1, “SITE-SPECIFIC RECOMBINASES FOR EFFICIENT AND SPECIFIC GENOME EDITING” (TECHNISCHE UNIVERSITÄt DRESDEN, published 2023).

Data set [1] has as its target T1, Cre recombinase monomer with W315S mutation.
T1 chain: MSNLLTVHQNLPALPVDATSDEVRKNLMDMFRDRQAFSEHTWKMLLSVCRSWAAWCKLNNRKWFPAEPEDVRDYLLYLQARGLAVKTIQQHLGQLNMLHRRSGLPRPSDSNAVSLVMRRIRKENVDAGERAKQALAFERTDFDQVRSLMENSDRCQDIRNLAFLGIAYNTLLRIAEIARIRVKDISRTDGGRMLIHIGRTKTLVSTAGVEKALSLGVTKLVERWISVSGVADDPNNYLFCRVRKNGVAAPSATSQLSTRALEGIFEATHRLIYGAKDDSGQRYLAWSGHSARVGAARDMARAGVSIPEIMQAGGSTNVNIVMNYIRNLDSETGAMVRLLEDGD

In data set [2] the target is T2, Cre recombinase monomer with W315I mutation.
T2 chain: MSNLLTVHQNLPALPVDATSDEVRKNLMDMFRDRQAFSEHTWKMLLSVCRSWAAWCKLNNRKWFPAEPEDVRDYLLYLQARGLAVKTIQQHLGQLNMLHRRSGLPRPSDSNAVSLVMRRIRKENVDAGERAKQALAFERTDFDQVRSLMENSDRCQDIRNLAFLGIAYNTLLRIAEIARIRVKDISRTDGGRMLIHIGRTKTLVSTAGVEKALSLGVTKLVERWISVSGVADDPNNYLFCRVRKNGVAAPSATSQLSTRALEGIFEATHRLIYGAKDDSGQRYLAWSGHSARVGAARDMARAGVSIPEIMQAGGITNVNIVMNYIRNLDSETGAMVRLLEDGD

Data set [3] concerns the target T3, Cre recombinase monomer with Y324H mutation.
T3 chain: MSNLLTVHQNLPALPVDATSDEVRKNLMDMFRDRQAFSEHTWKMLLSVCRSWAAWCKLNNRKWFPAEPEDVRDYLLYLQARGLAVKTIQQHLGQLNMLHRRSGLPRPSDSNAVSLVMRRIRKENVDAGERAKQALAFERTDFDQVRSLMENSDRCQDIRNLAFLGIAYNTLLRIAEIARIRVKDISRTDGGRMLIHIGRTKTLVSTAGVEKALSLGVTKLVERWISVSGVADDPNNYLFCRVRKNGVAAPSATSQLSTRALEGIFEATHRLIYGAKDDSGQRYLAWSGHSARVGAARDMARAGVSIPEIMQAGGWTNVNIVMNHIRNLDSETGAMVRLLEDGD

Data set [4] concerns the target T4, Cre recombinase monomer with Y324V mutation.
T4 chain: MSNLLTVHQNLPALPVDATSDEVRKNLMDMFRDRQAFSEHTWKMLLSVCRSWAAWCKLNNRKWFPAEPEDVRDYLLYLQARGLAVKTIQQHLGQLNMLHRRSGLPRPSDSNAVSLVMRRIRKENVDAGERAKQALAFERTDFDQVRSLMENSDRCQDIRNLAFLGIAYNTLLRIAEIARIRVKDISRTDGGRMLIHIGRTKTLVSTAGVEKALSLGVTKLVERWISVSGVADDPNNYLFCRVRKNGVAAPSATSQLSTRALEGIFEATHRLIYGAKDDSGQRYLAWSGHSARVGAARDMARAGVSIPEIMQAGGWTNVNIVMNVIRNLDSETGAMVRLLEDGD

For data set [5], the target named is T5, Cre recombinase monomer with Y324L mutation.
T5 chain: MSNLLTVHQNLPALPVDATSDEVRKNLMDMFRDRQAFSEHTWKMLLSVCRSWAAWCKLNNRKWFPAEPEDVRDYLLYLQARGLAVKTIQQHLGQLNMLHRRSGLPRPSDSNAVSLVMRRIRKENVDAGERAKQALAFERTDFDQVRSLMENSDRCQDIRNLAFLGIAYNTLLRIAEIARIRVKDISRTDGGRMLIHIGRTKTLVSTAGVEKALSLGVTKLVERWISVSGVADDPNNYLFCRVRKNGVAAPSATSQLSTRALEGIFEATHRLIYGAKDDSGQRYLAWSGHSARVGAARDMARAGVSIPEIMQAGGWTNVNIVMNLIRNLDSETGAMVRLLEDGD

For data set [6], the target named is T6, Cre recombinase monomer with Y324Q mutation.
T6 chain: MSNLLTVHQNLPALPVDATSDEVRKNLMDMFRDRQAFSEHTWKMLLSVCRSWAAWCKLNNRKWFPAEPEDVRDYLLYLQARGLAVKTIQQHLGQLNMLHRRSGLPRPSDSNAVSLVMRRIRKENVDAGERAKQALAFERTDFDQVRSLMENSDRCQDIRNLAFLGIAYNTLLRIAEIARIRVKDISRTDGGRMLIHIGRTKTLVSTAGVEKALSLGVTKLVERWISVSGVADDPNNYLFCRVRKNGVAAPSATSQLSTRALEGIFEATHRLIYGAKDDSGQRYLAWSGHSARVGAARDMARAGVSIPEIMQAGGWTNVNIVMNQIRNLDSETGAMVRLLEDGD

The target in data set [7] is T7, Cre recombinase monomer with W315L mutation.
T7 chain: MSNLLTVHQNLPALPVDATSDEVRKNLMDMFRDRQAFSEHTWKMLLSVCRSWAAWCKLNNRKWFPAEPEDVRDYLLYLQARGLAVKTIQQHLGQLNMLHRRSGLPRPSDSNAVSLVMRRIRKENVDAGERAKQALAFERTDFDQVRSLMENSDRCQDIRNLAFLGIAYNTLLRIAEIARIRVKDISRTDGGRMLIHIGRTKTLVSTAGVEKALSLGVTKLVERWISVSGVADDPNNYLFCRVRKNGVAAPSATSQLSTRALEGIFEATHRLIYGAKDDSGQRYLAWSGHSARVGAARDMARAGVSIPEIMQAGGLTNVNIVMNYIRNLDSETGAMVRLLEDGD

Data set [8] deals with T8, Cre recombinase monomer with Y324A mutation.
T8 chain: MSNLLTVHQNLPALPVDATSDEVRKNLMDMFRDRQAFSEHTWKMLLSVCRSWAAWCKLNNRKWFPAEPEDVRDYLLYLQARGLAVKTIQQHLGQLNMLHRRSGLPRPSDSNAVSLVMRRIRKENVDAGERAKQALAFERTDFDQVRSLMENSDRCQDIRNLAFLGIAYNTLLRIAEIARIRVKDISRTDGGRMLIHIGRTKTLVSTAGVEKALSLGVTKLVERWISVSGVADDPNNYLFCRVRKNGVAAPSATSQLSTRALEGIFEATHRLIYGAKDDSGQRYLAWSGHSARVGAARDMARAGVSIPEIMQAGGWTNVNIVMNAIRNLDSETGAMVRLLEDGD

B1: Cre recombinase monomer with Q311R mutation (protein)
chain: MSNLLTVHQNLPALPVDATSDEVRKNLMDMFRDRQAFSEHTWKMLLSVCRSWAAWCKLNNRKWFPAEPEDVRDYLLYLQARGLAVKTIQQHLGQLNMLHRRSGLPRPSDSNAVSLVMRRIRKENVDAGERAKQALAFERTDFDQVRSLMENSDRCQDIRNLAFLGIAYNTLLRIAEIARIRVKDISRTDGGRMLIHIGRTKTLVSTAGVEKALSLGVTKLVERWISVSGVADDPNNYLFCRVRKNGVAAPSATSQLSTRALEGIFEATHRLIYGAKDDSGQRYLAWSGHSARVGAARDMARAGVSIPEIMRAGGWTNVNIVMNYIRNLDSETGAMVRLLEDGD
Consider B1, for which the “Median dimer activity (recombination on loxP)” value in data set [1] stood at 37%; in data set [2], 92%; in data set [3] it was 76%; in data set [4] it was 90%; in data set [5], 95%; in data set [6], 72%. Also, the figures for the “Median dimer activity (recombination on loxP)” value in data set [7] and in data set [8] were 68% and 93%, respectively.
